Values of other authors in US20240082365A1, “MULTIDISCIPLINARY TREATMENT OF CHRONIC DISEASE USING REGENERATIVE CELLS AND TECHNOLOGIES” (priority 2022, published 2024).

Columns and labels:
[1] = tested on: metastatic renal cell carcinoma (RCC) and metastatic melanoma; details: high-dose, e.g. IV bolus 600,000 IU/kg every 8 hours for up to 14 doses
[2] = subcutaneous, one-compartment model

## aldesleukin
After SC administration
  time at which peak plasma levels are reached: 2 to 6 h
[2]
  absorption half-life: 0.75 h
  elimination half-life: 3 to 5 h
[1]
  antitumor activity: demonstrated antitumor activity
